The labels stand for the following.
B1: BCY11824 (peptide)
peptide: Ac-KCS[Aad]GWLTMCLKLHLC
modifications: linker 2-10-16 via TATA; not fully specified (C-terminus); printed as Ac-KCS[Aad]GWLTMCLKLHLC
B2: BCY11827 (peptide)
peptide: Ac-[hArg]CS[Aad]GWLTMCLKLHLC
modifications: linker 2-10-16 via TATA; not fully specified (C-terminus); printed as Ac-[HArg]CS[Aad]GWLTMCLKLHLC
B3: BCY11853 (peptide)
peptide: Ac-DKCS[Aad]GWLTMCQKLHLCPSH-OH
modifications: linker 3-11-17 via TATA
SMILES: CSCC[C@@H]1NC(=O)[C@H]([C@@H](C)O)NC(=O)[C@H](CC(C)C)NC(=O)[C@H](Cc2c[nH]c3ccccc23)NC(=O)CNC(=O)[C@H](CCCC(=O)O)NC(=O)[C@H](CO)NC(=O)[C@@H](NC(=O)[C@H](CCCCN)NC(=O)[C@H](CC(=O)O)NC(C)=O)CSCCC(=O)N2CN3CN(C2)C(=O)CCSC[C@@H](C(=O)N2CCC[C@H]2C(=O)N[C@@H](CO)C(=O)N[C@@H](Cc2c[nH]cn2)C(=O)O)NC(=O)[C@H](CC(C)C)NC(=O)[C@H](Cc2c[nH]cn2)NC(=O)[C@H](CC(C)C)NC(=O)[C@H](CCCCN)NC(=O)[C@H](CCC(N)=O)NC(=O)[C@H](CSCCC3=O)NC1=O
B4: BCY10960 (peptide)
peptide: Ac-SDKCSEGWLTMCQKLHLC
modifications: linker 4-12-18 via TATA; not fully specified (C-terminus); printed as [Ac]SDKCSEGWLTMCQKLHLC

*1 amine or outer side, *2 acyl side, *3 side chain or, on linkers, in order; H or OH if unused. Bridges are numbered along the chain shown (N, C = ends). Where no end group is shown, it is not given here. [ ]: non-standard residue; d: D form. TATA = O=C(CC[*:1])N1CN(C(=O)CC[*:2])CN(C(=O)CC[*:3])C1; hArg = N=C(N)NCCCC[C@H](N)C(=O)O; Aad = N[C@@H](CCCC(=O)O)C(=O)O; Chg = N[C@H](C(=O)O)C1CCCCC1; Nle = CCCC[C@H](N)C(=O)O; Nva = CCC[C@H](N)C(=O)O; Aib = CC(C)(N)C(=O)O

In this test the target is T1, Recombinant human PD-L1 (Sino Biologicals or R&D systems), biotinylated (human, UniProt Q9NZQ7 19-238, limits assumed, biotinylated with EZ-Link Sulfo-NHS-LC-LC-Biotin).
T1 construct: captured on a streptavidin CM5 chip for SPR; also called human PD-L1 protein; Biotinylated PD-L1
T1 sequence (Q9NZQ7 19-238 limits assumed): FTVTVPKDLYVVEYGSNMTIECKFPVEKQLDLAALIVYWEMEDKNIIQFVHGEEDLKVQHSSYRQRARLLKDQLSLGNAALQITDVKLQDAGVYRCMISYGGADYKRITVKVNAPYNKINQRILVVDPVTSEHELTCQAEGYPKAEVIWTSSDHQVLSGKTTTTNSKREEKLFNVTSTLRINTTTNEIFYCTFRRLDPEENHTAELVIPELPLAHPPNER
The test can be described thus: SPR (Biacore), biotinylated PD-L1 on streptavidin chip. The procedure: Biacore experiments were performed to determine kₐ) (M⁻¹s⁻¹), kd (s⁻¹), KD (nM) values of monomeric peptides binding to human PD-L1 protein. […] The protein was desalted to remove uncoupled biotin using spin columns into PBS. For analysis of binding, a Biacore 3000 instrument was used utilizing a CM5 sensor chip (GE Healthcare). Streptavidin was immobilized on the chip using standard amine-coupling chemistry at 25° C. with HBS-N (10 mM HEPES, 0.15 M NaCl, pH 7.4) as the running buffer. The carboxymethyl dextran surface was activated with a 12 min injection of a 1:1 ratio of 0.4 M 1-ethyl-3-(3-dimethylaminopropyl) carbodiimide hydrochloride (EDC)/0.1 M N-hydroxy succinimide (NHS) at a flow rate of 10 μl/min. For capture of streptavidin, protein was diluted to 0.1 mg/ml in 10 mM sodium acetate (pH 4.5) and captured by injecting 70 μl onto the activated chip surface. Residual activated groups were blocked with a 7 min injection of 1 M ethanolamine (pH 8.5). Biotinylated PD-L1 stock was diluted 1:100 in HBS-N and captured on one flow cell at 5 μl/min to a level of 1000-1300 RU. Buffer was changed to PBS/0.05% Tween 20 and a dilution series of the peptides was prepared in this buffer with a final DMSO concentration of 0.5%. The top concentrations were 200 nM or 500 nM with 6 2-fold dilutions. The SPR analysis was run at 25° C. at a flow rate of Flow rate 50 μl/min with 60 seconds association and 400 seconds disassociation. Data were corrected for DMSO excluded volume effects. All data were double-referenced for blank injections and reference surface using standard processing procedures and data processing and kinetic fitting were performed using Scrubber software, version 2.0c (Biologic Software). Data were fitted using mass transport model allowing for mass transport effects where appropriate.
(In general: In SPR one partner is held on a chip, and binding of the other changes the refractive index at the surface.)
The Kd is a measure of binding affinity in units of concentration. On to SDKCSAGWLTMCQ[Nle]LHLCA (linker 4-12-18 via TATA) [BCY10068], for which the Kd turned out to be 54.5 nM.
Next, SDKCSAGWLTMC[Chg]KLHLCA (linker 4-12-18 via TATA) [BCY10066]: 14.4 nM; B1: 60 nM; Ac-SEKCS[Aad]GWLTMCLKLHLCPSH (linker 4-12-18 via TATA) [BCY11831]: 13.2 nM.
SDKCSAGWLTMCQK[Nva]HLCA (linker 4-12-18 via TATA) [BCY10084]: the dissociation constant (Kd) was found to be 43.2 nM.
The result for SDKCSXGWLTMCQKLHLCA ([Abu] as in SDKCS[Abu]GWLTMCQKLHLCA; Ci, Cii, Ciii cyclised on TATA) [BCY10055] reads 27.9 nM.
Regarding SDKCSAGWLTMCQKLHXCA ([Nle] as in SDKCSAGWLTMCQKLH[Nle]CA; Ci, Cii, Ciii cyclised on TATA) [BCY10074], the Kd was determined as 36.1 nM.
The result for SDKCSAGWLTMCQKXHLCA ([Nle] as in SDKCSAGWLTMCQK[Nle]HLCA; Ci, Cii, Ciii cyclised on TATA) [BCY10071] reads 58.2 nM; that for B2, 30 nM.
As to SDKCSXGWLTMCQKLHLCA ([Aib] as in SDKCS[Aib]GWLTMCQKLHLCA; Ci, Cii, Ciii cyclised on TATA) [BCY10054], the Kd turned out to be 31.2 nM.
For the molecule Ac-SDKCS[Aad]GWLTMCLKLHLCA (linker 4-12-18 via TATA) [BCY11828], the Kd turned out to be 16.6 nM.
As for SDKCSAGWLTXCQKLHLCA ([Nle] as in SDKCSAGWLT[Nle]CQKLHLCA; Ci, Cii, Ciii cyclised on TATA) [BCY10058], the Kd stood at 59.7 nM.
The result for SDKCS[Nle]GWLTMCQKLHLCA (linker 4-12-18 via TATA) [BCY10062] reads 23 nM; that for SDKCSAGWLTMCQKLH[Nva]CA (linker 4-12-18 via TATA) [BCY10083], 75 nM; that for SDKCSAGWLTMCQKL[Aib]LCA (linker 4-12-18 via TATA) [BCY10073], 15.8 nM.
The result for SDXCSAGWLTMCQKLHLCA ([HArg] (homoarginine) = X at chain position 3; Ci, Cii, Ciii cyclised on TATA) [BCY10052] reads 22.3 nM; that for Ac-EKCS[Aad]GWLTMCLKLHLC (linker 3-11-17 via TATA) [BCY11826], 18.2 nM.
Next, B3: 17.6 nM.
Regarding B4, the Kd came to 9.94 nM.
Next, Ac-SEKCS[Aad]GWLTMCLKLHLC (linker 4-12-18 via TATA) [BCY11825]: 28.8 nM.

The record behind these values is US20210101932A1 (Bicycle, published 2021).
